Assay results reported in patent publication US20250326812A1 (CUGENE, published 2025).
Where no end group is shown, it is not given here.

Biological target: T1, P-0153, an IL-15/IL-15RαSushi+ Fc fusion protein
T1 construct: Heterodimeric knob/hole Fc fusion; It served as the plate-coated source of IL-15 in the peptide ELISA
Assay: ELISA; P-0153 coated on the plate at 1 ug/well, biotinylated peptide in 3-fold dilutions from 100 uM, streptavidin-HRP, TMB, OD450
Procedure: The five peptides, L01 to L05 (SEQ ID NO: 97-101) in Table 13 were synthesized and assessed for their binding to IL-15 in ELISA format. […] Streptavidin-HRP complex at the manufacturer's recommended concentration was added and signal was developed by TMB substrate.

T1 sequence (chain, as listed by the source, chain 1 of 2): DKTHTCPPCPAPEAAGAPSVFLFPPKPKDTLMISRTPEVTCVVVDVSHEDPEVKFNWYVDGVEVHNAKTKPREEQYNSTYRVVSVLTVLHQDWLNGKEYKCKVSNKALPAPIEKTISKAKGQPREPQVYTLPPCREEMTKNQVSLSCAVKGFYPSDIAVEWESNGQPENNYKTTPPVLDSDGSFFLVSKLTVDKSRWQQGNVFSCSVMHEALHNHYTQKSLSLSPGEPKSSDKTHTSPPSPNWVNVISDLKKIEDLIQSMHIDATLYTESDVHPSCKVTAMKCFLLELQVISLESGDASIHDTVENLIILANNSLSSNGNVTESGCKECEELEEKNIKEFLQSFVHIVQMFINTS
T1 sequence (chain, as listed by the source, chain 2 of 2): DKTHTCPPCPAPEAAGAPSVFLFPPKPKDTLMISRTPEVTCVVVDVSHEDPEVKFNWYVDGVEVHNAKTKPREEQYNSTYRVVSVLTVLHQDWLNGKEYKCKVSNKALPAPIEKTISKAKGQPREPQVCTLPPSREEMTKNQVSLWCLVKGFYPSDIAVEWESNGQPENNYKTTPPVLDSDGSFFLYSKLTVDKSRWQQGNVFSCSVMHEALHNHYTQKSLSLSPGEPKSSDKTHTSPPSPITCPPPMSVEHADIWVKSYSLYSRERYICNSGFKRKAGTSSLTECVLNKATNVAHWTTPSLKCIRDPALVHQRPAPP

EC50 (read off the curve) [µM]	binding result	Binder
~8	–	CEISQASHYFERHLC (also: biotinylated, position not given here, cyclized, mode and sites not given here, Synthetic peptide) [Blocking peptide L03 (cyclized IL-2Rβ loop 2)]
–	binds	EISQASHYFERHL (also: biotinylated, site not given here, also called IL-2Rβ loop 2 peptide (linear)) [L02]
–	binds	LGAPDSQKLTTVDIVGGGGGGGGEISQASHYFERHL (also: biotinylated, site not given here) [L04]
